Laboratory results: the supplement of paper PMC7125110
± gives the standard error. For some assays here: This sample holds only a part of the variants without activity.

B1: glmS ribozyme (parent)
chain: AUAAAAGCGCCAGAACUACAGAAAUGUAGUUGACGAGGAGGAGGUUUAUCGAAUUUUCGGCGGAUGCCUCCAAA

Key:
Conditions in all cases: with glucosamine-6-phosphate
glucosamine-6-phosphate [1] = variants of: B1; assay: kcat; higher = faster cleavage; RNA array
How it was run: (§1)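 The measurements used barcoded ribozyme variants on sequenced MiSeq chips, transcribed in situ by E. coli RNA polymerase and tracked at 37 °C with a hybridised Cy3 probe. Glucosamine-6-phosphate, 40 μM to 10 mM in HEPES/KCl/Mg(OAc)2 buffer, was flowed in while tiles were imaged over ~14 h. Baseline-normalised signals, also normalised to non-cleaving reference variants, gave per-tile medians that were fit to one- or two-exponential decays for kobs. kcat and KM resulted from weighted Michaelis–Menten fits across concentrations.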

glucosamine-6-phosphate [2] = variants of: B1; assay: KM; higher = weaker cofactor use; RNA array
How it was run: as §1

glucosamine-6-phosphate [3] = variants of: B1; assay: self-cleavage kobs at 10000 uM GlcN6P; higher = faster cleavage; RNA array
How it was run: as §1

glucosamine-6-phosphate [4] = variants of: B1; assay: self-cleavage kobs at 40 uM GlcN6P; higher = faster cleavage; RNA array
How it was run: as §1

glucosamine-6-phosphate [5] = variants of: B1; assay: self-cleavage kobs at 160 uM GlcN6P; higher = faster cleavage; RNA array
How it was run: as §1

glucosamine-6-phosphate [6] = variants of: B1; assay: self-cleavage kobs at 640 uM GlcN6P; higher = faster cleavage; RNA array
How it was run: as §1

glucosamine-6-phosphate [7] = variants of: B1; assay: self-cleavage kobs at 2500 uM GlcN6P; higher = faster cleavage; RNA array
How it was run: as §1

AUAAAAGCGCCAGAACUACAGAAAUGUAGUUGACGAGGAGGAGGUCUAUCGAAUUUUCGGCGGAUGCGUCCAAA [U46C C68G]
kcat (glucosamine-6-phosphate [1]): 5.04e-05 ± 2e-06 s⁻¹ | KM (glucosamine-6-phosphate [2]): 811 ± 200 µM | self-cleavage kobs at 10000 uM GlcN6P (glucosamine-6-phosphate [3]): 4.62e-05 ± 1.3e-05 s⁻¹

AUAAAAGCGCCAGAACUACAGAAAUGUAGUUGACGAGGAGGAGGGGUAUCGAAUUUUCGGCGGAUGCCUCCAAA [U45G U46G]
kcat (glucosamine-6-phosphate [1]): 0.00603 ± 0.0024 s⁻¹ | self-cleavage kobs at 40 uM GlcN6P (glucosamine-6-phosphate [4]): 7.27e-05 ± 1.4e-05 s⁻¹ | self-cleavage kobs at 160 uM GlcN6P (glucosamine-6-phosphate [5]): 0.000206 ± 5.5e-05 s⁻¹ | self-cleavage kobs at 640 uM GlcN6P (glucosamine-6-phosphate [6]): 0.000961 ± 0.00019 s⁻¹ | self-cleavage kobs at 2500 uM GlcN6P (glucosamine-6-phosphate [7]): 0.00158 ± 0.00036 s⁻¹ | self-cleavage kobs at 10000 uM GlcN6P (glucosamine-6-phosphate [3]): 0.00523 ± 0.00084 s⁻¹

AUAAAAGCGCCAGAACUACAGAAAUGUAGUUGACGAGGAGGAGGGCUAUCGAAUUUUCGGCGGAUGCCUCCAAA [U45G U46C]
kcat (glucosamine-6-phosphate [1]): 0.0148 ± 0.0013 s⁻¹ | KM (glucosamine-6-phosphate [2]): 3530 ± 440 µM | self-cleavage kobs at 40 uM GlcN6P (glucosamine-6-phosphate [4]): 0.000173 ± 2.8e-05 s⁻¹ | self-cleavage kobs at 160 uM GlcN6P (glucosamine-6-phosphate [5]): 0.00068 ± 0.00013 s⁻¹ | self-cleavage kobs at 640 uM GlcN6P (glucosamine-6-phosphate [6]): 0.0019 ± 0.00046 s⁻¹ | self-cleavage kobs at 2500 uM GlcN6P (glucosamine-6-phosphate [7]): 0.00634 ± 0.001 s⁻¹ | self-cleavage kobs at 10000 uM GlcN6P (glucosamine-6-phosphate [3]): 0.011 ± 0.0013 s⁻¹

AUAAAAGCGCCAGAACUACAGAAAUGUAGUUGACGAGGAGGAGGGUUAUCGAAUUAUCGGCGGAUGCCUCCAAA [U45G U56A]
kcat (glucosamine-6-phosphate [1]): 0.00335 ± 0.00043 s⁻¹ | KM (glucosamine-6-phosphate [2]): 1720 ± 280 µM | self-cleavage kobs at 40 uM GlcN6P (glucosamine-6-phosphate [4]): 7.59e-05 ± 1.8e-05 s⁻¹ | self-cleavage kobs at 160 uM GlcN6P (glucosamine-6-phosphate [5]): 0.000299 ± 6.2e-05 s⁻¹ | self-cleavage kobs at 640 uM GlcN6P (glucosamine-6-phosphate [6]): 0.000848 ± 0.00019 s⁻¹ | self-cleavage kobs at 2500 uM GlcN6P (glucosamine-6-phosphate [7]): 0.00206 ± 0.00051 s⁻¹

AUAAAAGCGCCAGAACUACAGAAAUGUAGUUGACGAGGAGGAGGUAUAUCGAAGUUUCGGCGGAUGCCUCCAAA [U46A U54G]
kcat (glucosamine-6-phosphate [1]): 0.00254 ± 0.00049 s⁻¹ | KM (glucosamine-6-phosphate [2]): 1180 ± 400 µM | self-cleavage kobs at 40 uM GlcN6P (glucosamine-6-phosphate [4]): 8.77e-05 ± 2e-05 s⁻¹ | self-cleavage kobs at 160 uM GlcN6P (glucosamine-6-phosphate [5]): 0.000213 ± 5.2e-05 s⁻¹ | self-cleavage kobs at 640 uM GlcN6P (glucosamine-6-phosphate [6]): 0.00113 ± 0.00014 s⁻¹ | self-cleavage kobs at 2500 uM GlcN6P (glucosamine-6-phosphate [7]): 0.00191 ± 0.00028 s⁻¹ | self-cleavage kobs at 10000 uM GlcN6P (glucosamine-6-phosphate [3]): 0.00205 ± 0.00028 s⁻¹

AUAAAAGCGCCAGAACUACAGAAAUGUAGUUGACGAGGAGGAGGUAUAUCGAAGUUUCGGCGGAUGCCUGCAAA [U46A U54G C70G]
kcat (glucosamine-6-phosphate [1]): 0.000171 ± 6e-05 s⁻¹ | self-cleavage kobs at 160 uM GlcN6P (glucosamine-6-phosphate [5]): 6.23e-05 ± 2e-05 s⁻¹ | self-cleavage kobs at 640 uM GlcN6P (glucosamine-6-phosphate [6]): 0.000291 ± 6.7e-05 s⁻¹ | self-cleavage kobs at 2500 uM GlcN6P (glucosamine-6-phosphate [7]): 0.000305 ± 6.4e-05 s⁻¹ | self-cleavage kobs at 10000 uM GlcN6P (glucosamine-6-phosphate [3]): 0.000127 ± 2.9e-05 s⁻¹

AUAAAAGCGCCAGAACUACAGAAAUGUAGUUGACGAGGAGGAGGUCUAUUGAAUUUUCGGCGGAUGCCUCCAAA [U46C C50U]
kcat (glucosamine-6-phosphate [1]): 1.22e-05 ± 2e-06 s⁻¹ | self-cleavage kobs at 40 uM GlcN6P (glucosamine-6-phosphate [4]): < 1e-05 s⁻¹

AUAAAAGCGCCAGAACUACAGAAAUGUAGUUGACGAGGAGGAGGUAUAUUGAAUUUUAGGCGGAUGCCUCGAAA [U46A C50U C58A C71G]
kcat (glucosamine-6-phosphate [1]): 1.07e-05 ± 3e-06 s⁻¹

AUAAAAGCGCCAGAACUACAGAAAUGUAGUUGACGAGGAGGAGGUAUAUCGAAUUUUCGGCGGAUGCCUCUAAA [U46A C71U]
kcat (glucosamine-6-phosphate [1]): 0.00396 ± 0.00074 s⁻¹ | KM (glucosamine-6-phosphate [2]): 2020 ± 580 µM | self-cleavage kobs at 40 uM GlcN6P (glucosamine-6-phosphate [4]): 8.79e-05 ± 1.3e-05 s⁻¹ | self-cleavage kobs at 160 uM GlcN6P (glucosamine-6-phosphate [5]): 0.000232 ± 6.3e-05 s⁻¹ | self-cleavage kobs at 640 uM GlcN6P (glucosamine-6-phosphate [6]): 0.000874 ± 0.00015 s⁻¹ | self-cleavage kobs at 2500 uM GlcN6P (glucosamine-6-phosphate [7]): 0.00353 ± 0.00069 s⁻¹ | self-cleavage kobs at 10000 uM GlcN6P (glucosamine-6-phosphate [3]): 0.00319 ± 0.00037 s⁻¹

AUAAAAGCGCCAGAACUACAGAAAUGUAGUUGACGAGGAGGAGGGUUAUCGAAUCUUCGGCGGAUGCCUCCAAA [U45G U55C]
kcat (glucosamine-6-phosphate [1]): 0.00551 ± 0.00089 s⁻¹ | KM (glucosamine-6-phosphate [2]): 2350 ± 590 µM | self-cleavage kobs at 40 uM GlcN6P (glucosamine-6-phosphate [4]): 0.000129 ± 2.6e-05 s⁻¹ | self-cleavage kobs at 160 uM GlcN6P (glucosamine-6-phosphate [5]): 0.000297 ± 5.2e-05 s⁻¹ | self-cleavage kobs at 640 uM GlcN6P (glucosamine-6-phosphate [6]): 0.00131 ± 0.0002 s⁻¹ | self-cleavage kobs at 2500 uM GlcN6P (glucosamine-6-phosphate [7]): 0.00273 ± 0.00035 s⁻¹ | self-cleavage kobs at 10000 uM GlcN6P (glucosamine-6-phosphate [3]): 0.00455 ± 0.00058 s⁻¹

AUAAAAGCGCCAGAACUACAGAAAUGUAGUUGACGAGGAGGAGGUAUAUCGAAUUUUCGGCGGAUGCCCCCAAA [U46A U69C]
kcat (glucosamine-6-phosphate [1]): 0.00197 ± 0.00058 s⁻¹ | KM (glucosamine-6-phosphate [2]): 1590 ± 770 µM | self-cleavage kobs at 40 uM GlcN6P (glucosamine-6-phosphate [4]): 9.53e-05 ± 1.9e-05 s⁻¹ | self-cleavage kobs at 160 uM GlcN6P (glucosamine-6-phosphate [5]): 0.000133 ± 2.7e-05 s⁻¹ | self-cleavage kobs at 640 uM GlcN6P (glucosamine-6-phosphate [6]): 0.00073 ± 0.00012 s⁻¹ | self-cleavage kobs at 2500 uM GlcN6P (glucosamine-6-phosphate [7]): 0.00122 ± 0.00015 s⁻¹ | self-cleavage kobs at 10000 uM GlcN6P (glucosamine-6-phosphate [3]): 0.00162 ± 0.00027 s⁻¹

AUAAAAGCGCCAGAACUACAGAAAUGUAGUUGACGAGGAGGAGGUAUAUCGAAUUCUCGGCGGAUGCCUCCAAA [U46A U56C]
kcat (glucosamine-6-phosphate [1]): 0.0005 ± 4.2e-05 s⁻¹ | KM (glucosamine-6-phosphate [2]): 1350 ± 250 µM | self-cleavage kobs at 640 uM GlcN6P (glucosamine-6-phosphate [6]): 0.000158 ± 3.2e-05 s⁻¹ | self-cleavage kobs at 2500 uM GlcN6P (glucosamine-6-phosphate [7]): 0.000362 ± 8.4e-05 s⁻¹ | self-cleavage kobs at 10000 uM GlcN6P (glucosamine-6-phosphate [3]): 0.000424 ± 8.3e-05 s⁻¹

AUAAAAGCGCCAGAACUACAGAAAUGUAGUUGACGAGGAGGAGGUAUAUCGAAUUUUCGGCGGACGCCUCCAAA [U46A U65C]
kcat (glucosamine-6-phosphate [1]): 0.000937 ± 0.00023 s⁻¹ | KM (glucosamine-6-phosphate [2]): 2440 ± 1100 µM | self-cleavage kobs at 160 uM GlcN6P (glucosamine-6-phosphate [5]): 4.37e-05 ± 1.8e-05 s⁻¹ | self-cleavage kobs at 640 uM GlcN6P (glucosamine-6-phosphate [6]): 0.00029 ± 6.2e-05 s⁻¹ | self-cleavage kobs at 2500 uM GlcN6P (glucosamine-6-phosphate [7]): 0.000426 ± 8.2e-05 s⁻¹ | self-cleavage kobs at 10000 uM GlcN6P (glucosamine-6-phosphate [3]): 0.000782 ± 0.00014 s⁻¹

AUAAAAGCGCCAGAACUACAGAAAUGUAGUUGACGAGGAGGAGGUCUCUCGAAUUUUCGGCGGAUGCCUCCAAA [U46C A48C]
kcat (glucosamine-6-phosphate [1]): 0.000204 ± 4.7e-05 s⁻¹ | self-cleavage kobs at 2500 uM GlcN6P (glucosamine-6-phosphate [7]): 8.54e-05 ± 2.8e-05 s⁻¹ | self-cleavage kobs at 10000 uM GlcN6P (glucosamine-6-phosphate [3]): 0.000136 ± 2.8e-05 s⁻¹

AUAAAAGCGCCAGAACUACAGAAAUGUAGUUGACGAGGAGGAGGUAUAUCGAAUUUUCGGCGGAUGCAUCCAAA [U46A C68A]
kcat (glucosamine-6-phosphate [1]): 1.9e-05 ± 7.6e-06 s⁻¹ | self-cleavage kobs at 40 uM GlcN6P (glucosamine-6-phosphate [4]): < 1e-05 s⁻¹
